Reference: a protein production outcome set (Wang et al. 2014)

Experiment: label from the status in PepcDB records

Sequence	protein production
MESGIFGEGGSLPPLPVLLRGLQDLGLLGKLDIARRATLTGISLCFSVFLQHIGIMWIQVRTMDGKETHTVNSLSRLTKVQELRKKIEELFHVEPQLQRLFYRGKQMEDGHTLFDYDVRLNDTIQLLVRQSLALPLSTKERDSELSDSDSGYGVGHSESDKSSTHGEGTADGDDKTVWEDTDLGLYKVNEYVDVRDNIFGAWFEAQVVQVQKKALSEEEPCSSSAIMAPEDDIMYHIKYDDYPEHGVDIVKAKNVRARARTVIPWEDLEVGQVVMANYNVDYPRKRGFWYDVEICRKRQTRTARELYGNVMLLNDSQLNNCRIIFVDEVLKIELPNERSPLIGSPSRRKSGPSCQYCKDDENKPCRKCACHICGGREAPEKQVLCDECDMAFHLYCLQPPLTCVPPEPEWYCPSCRTDSSEVVQAGEKLKKSKKKAKMASATSSSRRDWGKGMACVGRTTECTIVPANHFGPIPGVPVGTMWRFRVQVSESGVHRPHVAGIHGRSNDGAYSLVLAGGYEDDVDNGNFFTYTGSGGRDLSGNKRTAGQSSDQKLTNNNRALALNCHSPINEKGAEAEDWRQGKPVRVVRNMKGGKHSKYAPAEGNRYDGIYKVVKYWPEKGKSGFIVWRYLLRRDDTEPEPWTREGKDRTRQLGLTMQYPEGYLEALANKEKNRKRPAKALEQGPSSSKIGKSKRKSTGPATTSPRVSKKSKLEPYTLPLQQANLIKEDKGNAKLWDDVLSSLQDGPYQIFLSKVKEAFQCICCQELVFRPVTTVCQHNVCKDCLDRSFRAQVFSCPACRYDLDHSSPTRVNQPLQTILNQLFPGYGSGR	failed
MKEVRIVFQPGEISVPVAAGTTIMEAMNRSGLGEDFPCGGRGKCGKCRVKVREGREDFTAIDEDHLTAQELAEGVRLACATKINRDMMVEMQSPKKLQHHILIDSAARAFHIHPHLVKVFAEIAQPSLSEHKSDWQRLQESLAGLGCSVHDLQAPLSVLRRLPDTLRESTNRVTTIVYGSQVLGVEQGDTTGTLLGMAFDIGTTTIVGYLLDLNSGRELEVVSTLNPQAQYGGDVISRITFAGKEEKGLDTLHQAVTGAMNRLIGEAVDKAGVSRTQLYGISVAANTTMHHLFLGITPRSIGMSPYVSAINQGLVVAPGELGLEINKAGRVFVLPNIAGFVGADTTAVLLASDLEKSDHVTLILDIGTNGEIVLGSKNRMVACSAAAGPAFEGAQITSGMRGADGAIDHISFDHGLSYTVIGNGRPIGICGSALLDGVAGFVELGMINKRGKFLEPEKLTHPSALKLKDRLIKYEETWAFQLVEAGQTRHGRPILITQNDIRELQLAKGAIAAGVRILQEAMGIECEDIKEVLLAGAFGNYLNPHSACVIGLIPRELESRIKTIGNAAGNGAKIALLSAQEFSRAKDLAGGVSFVELGSYPGFNTIFAQNTYFKLDLEHHHHHH	not failed
MPLNRNHSELRSGKVNLKNGDPFTIALFGVDSDEKRKQQGGGERSDTIMVLSINPKEKKTELVSIPRDTKAEIAGRGTEEKINHAYAYGGPNMAVKTIEKLMNVPIDHYATIDMDGLHDMIDTLGGVDVVSNSTFTMGANHFVKGEKTHVDGDAAMDFIRSRKEDGAGGDFGRQERQQLILEAMADKMTSASSITHFNTLMNQIQKNVKTDLKLGDLNTIRTKYKDANDQVNRHQLEGEGGIQNDGLYYFIPSDASKNENTQLLRDNLNLLEHHHHHH	not failed
MIPYVNEYDTPNCNTLAETAKKSIRTPESLGLDRCIQCGACTASCPAARFTDYSPRQIVKKVLENDRSVLESDMIWSCFYCYSCNMRCPRNNSPVTIVQVLRQMAINEGIGIGKLAYFLEIGECLAENGASKVPGAGVKNMERDLGERWIGIKRNLEPIRSELGLSPRDVRDTHGEVQAILESTGYFEREKWIKAGIQEKKLHGFLKADCSDEEKKNGDFCFESDREYTGQEAITV	failed
